Measurements as given in patent US20040214255A1 (MYRIAD GENETICS, published 2004).
Blank lines part the entries; values can stand above or below the binder they belong to.

How the values were obtained:
[1] = biological target: T1, Dynamin, amino acids 250-700 (human, UniProt Q05193 250-700); experiment: yeast two-hybrid
T1 construct: range 250-700
T1 sequence (looked up): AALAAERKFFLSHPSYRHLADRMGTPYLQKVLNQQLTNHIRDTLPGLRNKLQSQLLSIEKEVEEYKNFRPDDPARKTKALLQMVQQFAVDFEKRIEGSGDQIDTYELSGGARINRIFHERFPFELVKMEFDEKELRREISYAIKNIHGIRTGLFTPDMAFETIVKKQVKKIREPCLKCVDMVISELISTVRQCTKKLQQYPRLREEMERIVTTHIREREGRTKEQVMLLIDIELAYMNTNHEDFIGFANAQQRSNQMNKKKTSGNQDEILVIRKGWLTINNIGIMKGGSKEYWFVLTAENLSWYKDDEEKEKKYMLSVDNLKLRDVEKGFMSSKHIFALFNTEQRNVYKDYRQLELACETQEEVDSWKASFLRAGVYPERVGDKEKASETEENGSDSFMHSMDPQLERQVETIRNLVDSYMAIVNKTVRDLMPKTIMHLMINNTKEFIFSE
From the text: (§1) The new construct was selected directly in the yeast strain PNY200 for its ability to drive tryptophane synthesis (genotype of this strain: […] trp1-901 leu2-3,112 ura3-52 his3-200 ade2 gal4Δ gal80). In these yeast cells, the bait was produced as a C-terminal fusion protein with the DNA binding domain of the transcription factor Ga14 (amino acids 1 to 147). Prey libraries were transformed into the yeast strain BK100 (genotype of this strain: MATα trp1-901 leu2-3,112 ura3-52 his3-200 gal4Δ gal80 LYS2::GAL-HIS3 GAL2-ADE2 met2::GAL7-lacZ), and selected for the ability to drive leucine synthesis. In these yeast cells, each cDNA was expressed as a fusion protein with the transcription activation domain of the transcription factor Ga14 (amino acids 768 to 881) and a 9 amino acid hemagglutinin epitope tag. PNY200 cells (MATα mating type), expressing the bait, were then mated with BK100 cells (MATa mating type), expressing prey proteins from a prey library. The resulting diploid yeast cells expressing proteins interacting with the bait protein were selected for the ability to synthesize tryptophan, leucine, histidine, and adenine. DNA was prepared from each clone, transformed by electroporation into E. coli strain KC8 (Clontech KC8 electrocompetent cells, Catalog No. C2023-1), and the cells were selected on ampicillin-containing plates in the absence of either tryptophane (selection for the bait plasmid) or leucine (selection for the library plasmid). DNA for both plasmids was prepared and sequenced by the dideoxynucleotide chain termination method. The identity of the bait cDNA insert was confirmed and the cDNA insert from the prey library plasmid was identified using the BLAST program to search against public nucleotide and protein databases. Plasmids from the prey library were then individually transformed into yeast cells together with a plasmid driving the synthesis of lamin and 5 other test proteins, respectively, fused to the Ga14 DNA binding domain. Clones that gave a positive signal in the β-galactosidase assay were considered false-positives and discarded. […] Clones that gave a positive signal in the β-galactosidase assay were considered true positives.

[2] = biological target: T2, Myosin Heavy Chain (Swiss Protein P13533), amino acids 1589-1909 (human, UniProt P13533 1589-1909); experiment: yeast two-hybrid
T2 construct: range 1589-1909; also called cardiac muscle myosin heavy chain; MYSA
T2 sequence (P13533 1589-1909, one chain of several): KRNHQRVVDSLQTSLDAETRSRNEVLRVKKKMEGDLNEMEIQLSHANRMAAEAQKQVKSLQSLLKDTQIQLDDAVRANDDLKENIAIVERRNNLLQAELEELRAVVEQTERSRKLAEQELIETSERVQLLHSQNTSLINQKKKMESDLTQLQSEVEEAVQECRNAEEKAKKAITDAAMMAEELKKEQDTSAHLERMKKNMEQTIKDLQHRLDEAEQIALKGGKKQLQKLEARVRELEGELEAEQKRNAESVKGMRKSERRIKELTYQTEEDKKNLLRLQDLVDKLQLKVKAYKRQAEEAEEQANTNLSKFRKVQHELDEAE
From the text: as §1

[3] = biological target: T3, NuMA1, amino acids 185-361 (human, UniProt Q14980 185-361); experiment: yeast two-hybrid
T3 construct: range 185-361; also called nuclear mitotic apparatus protein NuMA1
T3 sequence (looked up): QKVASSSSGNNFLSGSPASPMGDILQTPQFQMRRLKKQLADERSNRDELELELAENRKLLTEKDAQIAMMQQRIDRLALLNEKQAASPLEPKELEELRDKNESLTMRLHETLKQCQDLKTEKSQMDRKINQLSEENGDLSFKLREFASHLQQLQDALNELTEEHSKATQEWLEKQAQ
From the text: as §1

[4] = biological target: T4, Clone C-193 (CARP), amino acids 21-302 (human, UniProt Q15327 21-302); experiment: yeast two-hybrid
T4 construct: range 21-302
T4 sequence (Q15327 21-302 limits assumed): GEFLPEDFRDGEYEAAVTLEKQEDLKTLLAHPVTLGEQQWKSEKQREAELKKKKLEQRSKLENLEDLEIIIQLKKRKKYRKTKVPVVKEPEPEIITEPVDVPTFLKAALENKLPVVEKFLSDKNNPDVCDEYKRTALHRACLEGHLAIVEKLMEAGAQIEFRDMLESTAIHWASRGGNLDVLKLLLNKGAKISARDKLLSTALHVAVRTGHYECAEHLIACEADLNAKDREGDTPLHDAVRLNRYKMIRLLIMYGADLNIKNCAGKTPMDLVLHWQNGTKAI
From the text: as §1

[5] = biological target: T5, Beta-catenin, amino acids 579-782 (human, UniProt P35222 579-781); experiment: yeast two-hybrid
T5 construct: range 579-782
T5 sequence (looked up): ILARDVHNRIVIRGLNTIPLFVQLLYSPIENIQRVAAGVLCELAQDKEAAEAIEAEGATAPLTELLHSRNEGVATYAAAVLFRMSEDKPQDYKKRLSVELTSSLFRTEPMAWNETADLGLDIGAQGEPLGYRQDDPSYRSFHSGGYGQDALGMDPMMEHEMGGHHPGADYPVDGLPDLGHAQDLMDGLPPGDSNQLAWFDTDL
From the text: as §1

[6] = biological target: T6, Alpha-SNAP, amino acids 36-241 (human, UniProt P54920 36-241); experiment: yeast two-hybrid
T6 construct: range 36-241
T6 sequence (looked up): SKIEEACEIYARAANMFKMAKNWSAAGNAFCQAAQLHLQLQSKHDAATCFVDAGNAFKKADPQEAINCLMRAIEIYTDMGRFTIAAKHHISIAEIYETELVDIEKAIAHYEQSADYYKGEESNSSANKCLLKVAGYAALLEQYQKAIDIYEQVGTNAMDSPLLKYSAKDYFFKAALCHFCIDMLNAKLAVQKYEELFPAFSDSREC
From the text: as §1

[7] = biological target: T7, 14-3-3-Zeta, amino acids 1-200 (human, UniProt P63104 1-200); experiment: yeast two-hybrid; GLUT4 463-510 with 14-3-3-Zeta 1-200
T7 sequence: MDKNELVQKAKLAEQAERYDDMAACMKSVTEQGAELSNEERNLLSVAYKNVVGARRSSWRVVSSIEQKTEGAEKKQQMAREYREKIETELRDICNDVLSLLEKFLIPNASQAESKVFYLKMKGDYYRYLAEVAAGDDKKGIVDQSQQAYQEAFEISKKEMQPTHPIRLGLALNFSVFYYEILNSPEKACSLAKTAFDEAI
From the text: The new construct was selected directly in the yeast strain PNY200 for its ability to drive tryptophane synthesis (genotype of this strain: MATα trp1-901 leu2-3,112 ura3-52 his3-200 ade2 gal4Δ gal80). In these yeast cells, the bait was produced as a C-terminal fusion protein with the DNA binding domain of the transcription factor Ga14 (amino acids 1 to 147). Prey libraries were transformed into the yeast strain BK100 (genotype of this strain: MATα trp1-901 leu2-3,112 ura3-52 his3-200 gal4Δ gal80 LYS2::GAL-HIS3 GAL2-ADE2 met2::GAL7-lacZ), and selected for the ability to drive leucine synthesis. In these yeast cells, each cDNA was expressed as a fusion protein with the transcription activation domain of the transcription factor Ga14 (amino acids 768 to 881) and a 9 amino acid hemagglutinin epitope tag. PNY200 cells (MATα mating type), expressing the bait, were then mated with BK100 cells (MATa mating type), expressing prey proteins from a prey library. The resulting diploid yeast cells expressing proteins interacting with the bait protein were selected for the ability to synthesize tryptophan, leucine, histidine, and adenine. […]

[8] = biological target: T8, Dynamin, amino acids 104-365 (human, UniProt Q05193 104-365); experiment: yeast two-hybrid
T8 construct: range 104-365
T8 sequence (looked up): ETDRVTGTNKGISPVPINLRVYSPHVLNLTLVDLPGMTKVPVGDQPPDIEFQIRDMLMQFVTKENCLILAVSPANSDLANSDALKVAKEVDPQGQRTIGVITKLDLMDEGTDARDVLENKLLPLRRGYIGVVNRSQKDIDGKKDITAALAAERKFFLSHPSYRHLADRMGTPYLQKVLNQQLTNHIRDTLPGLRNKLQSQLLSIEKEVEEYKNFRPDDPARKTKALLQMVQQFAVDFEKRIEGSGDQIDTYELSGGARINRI
From the text: as §1

[9] = biological target: T9, Alpha Acid Glucosidase (GAA), amino acids 513-953 (human, UniProt P10253 513-952); experiment: yeast two-hybrid
T9 construct: range 513-953
T9 sequence (P10253 513-952 limits assumed): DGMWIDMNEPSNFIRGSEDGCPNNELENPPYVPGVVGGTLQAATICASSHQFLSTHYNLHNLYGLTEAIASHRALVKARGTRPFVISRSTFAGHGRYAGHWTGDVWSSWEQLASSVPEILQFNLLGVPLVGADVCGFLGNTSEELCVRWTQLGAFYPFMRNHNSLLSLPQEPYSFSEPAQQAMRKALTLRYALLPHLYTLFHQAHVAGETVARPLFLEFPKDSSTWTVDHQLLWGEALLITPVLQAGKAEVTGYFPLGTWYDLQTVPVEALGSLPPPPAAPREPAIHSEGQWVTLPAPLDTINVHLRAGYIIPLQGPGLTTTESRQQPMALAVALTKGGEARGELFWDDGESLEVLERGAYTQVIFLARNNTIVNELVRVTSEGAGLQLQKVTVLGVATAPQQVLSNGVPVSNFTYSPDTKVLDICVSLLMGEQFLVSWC
From the text: as §1

binding result [8]: binds
B3: GLUT1, amino acids 463-492 (other, human, UniProt P11166 463-492, looked up)
chain: IASGFRQGGASQSDKTPEELFHPLGADSQV
notes: range 463-492; also called Glucose Transporter 1

binding result [9]: binds
B4: PI-3 kinase p110 subunit, amino acids 1-300 (enzyme)
chain: MCFSFIMPPAMADILDIWAVDSQIASDGSIPVDFLLPTGIYIQLEVPREATISYIKQMLWKQVHNYPMFNLLMDIDSYMFACVNQTAVYEELEDETRRLCDVRPFLPVLKLVTRSCDPGEKLDSKIGVLIGKGLHEFDSLKDPEVNEFRRKMRKFSEEKILSLVGLSWMDWLKQTYPPEHEPSIPENLEDKLYGGKLIVAVHFENCQDVFSFQVSPNMNPIKVNELAIQKRLTIHGKEDEVSPYDYVLQVSGRVEYVFGDHPLIQFQYIRNCVMNRALPHFILVECCKIKKMYEQEMIAI
notes: range 1-300; also called PI-3K110; p110 catalytic subunit of PI-3 kinase

Continued, binder first:

B1: Clathrin Assembly Protein (CALM), amino acids 267-484 (other, human, UniProt Q13492 267-484, looked up)
chain: LSQAPSSLLDALEQHLASLEGKKIKDSTAASRATTLSNAVSSLASTGLSLTKVDEREKQAALEEEQARLKALKEQRLKELAKKPHTSLTTAASPVSTSAGGIMTAPAIDIFSTPSSSNSTSKLPNDLLDLQQPTFHPSVHPMSTASQVASTWGDPFSATVDAVDDAIPSLNPFLTKSSGDVHLSISSDVSTFTTRTPTHEMFVGFTPSPVAQPHPSAG
notes: range 267-484
binding result [1]: binds

Binder: TYFKVPETKGRTFDEIASGFRQGGASQSDKTPEELFHPLGADSQV (other, human, UniProt P11166 448-492, looked up, range 448-493; also called GLUT1; Glut1) [Glucose Transporter 1, amino acids 448-493]
binding result [2]: binds

B2: Akt kinase 1 (Akt1), amino acids 1-118 (enzyme, human, UniProt P31749 1-118, looked up)
chain: MSDVAIVKEGWLHKRGEYIKTWRPRYFLLKNDGTFIGYKERPQDVDQREAPLNNFSVAQCQLMKTERPRPNTFIIRCLQWTTVIERTFHVETPEEREEWTTAIQTVADGLKKQEEEEM
notes: range 1-118
binding result [3]: binds

Binder: FTFLRVPETRGRTFDQISAAFHRTPSLLEQEVKPSTELEYLGPDEND (other, human, UniProt P14672 463-509, looked up, range 463-510; also called GLUT4; Glut4) [Glucose Transporter 4, amino acids 463-510]
binding result [4]: binds
binding result [5]: binds
binding result [6]: binds
binding result [7]: binds
